For experiment [1], the target named is T1, endogenous PKCalpha from Jurkat T cell lysate (human, UniProt P17252 2-672).
T1 construct: also called PKCα
In words: GST pull down from Jurkat T cell lysate, immunoblot. The protocol: (§1) GST pull down assay: 1×10⁷ Jurkat T cells were lysed in 1 ml lysis buffer (25 mM MES pH 6.5, 5 mM NaF, 1 mM Na₃VO₄, 2 mM EDTA, 150 mM NaCl, 0.5% TritonX-100, 50 μg/ml aprotinin and leupeptin). Lysates were precleared for 30 min at 4° C. Thereafter incubation with purified recombinant GST-NR2F6 fusion proteins for 3 h at 4° C., 5× washing in lysis buffer, SDS-PAGE under reducing conditions on Bis/Tris-buffered gels (Novex, San Diego, Calif.) was performed. Proteins were transferred onto a polyvinyl-difluoridon (PVDF) membrane (Millipore, Bedford, Mass.) by semi-dry blotting (90 mA, 80 min, 4° C.). […] Peroxidase-conjugated antibodies (Pierce, Rockford, Ill.) served as secondary reagent (1:5,000). For antigen detection enhanced chemiluminescence was used (Super Signal, Pierce, Rockford, Ill.).
For orientation: Immunoblotting shows a protein as a band on a membrane.

The target of experiment [2] is T2, endogenous PKCtheta from Jurkat T cell lysate (human, UniProt Q04759 1-706).
T2 construct: also called PKCθ
The description is as above. On the procedure:
as §1

This note sets out measurements from patent US20110239311A1 (MEDIZINISCHE UNIVERSITAT INNSBRUCK, published 2011).

T2 sequence (Q04759 whole entry): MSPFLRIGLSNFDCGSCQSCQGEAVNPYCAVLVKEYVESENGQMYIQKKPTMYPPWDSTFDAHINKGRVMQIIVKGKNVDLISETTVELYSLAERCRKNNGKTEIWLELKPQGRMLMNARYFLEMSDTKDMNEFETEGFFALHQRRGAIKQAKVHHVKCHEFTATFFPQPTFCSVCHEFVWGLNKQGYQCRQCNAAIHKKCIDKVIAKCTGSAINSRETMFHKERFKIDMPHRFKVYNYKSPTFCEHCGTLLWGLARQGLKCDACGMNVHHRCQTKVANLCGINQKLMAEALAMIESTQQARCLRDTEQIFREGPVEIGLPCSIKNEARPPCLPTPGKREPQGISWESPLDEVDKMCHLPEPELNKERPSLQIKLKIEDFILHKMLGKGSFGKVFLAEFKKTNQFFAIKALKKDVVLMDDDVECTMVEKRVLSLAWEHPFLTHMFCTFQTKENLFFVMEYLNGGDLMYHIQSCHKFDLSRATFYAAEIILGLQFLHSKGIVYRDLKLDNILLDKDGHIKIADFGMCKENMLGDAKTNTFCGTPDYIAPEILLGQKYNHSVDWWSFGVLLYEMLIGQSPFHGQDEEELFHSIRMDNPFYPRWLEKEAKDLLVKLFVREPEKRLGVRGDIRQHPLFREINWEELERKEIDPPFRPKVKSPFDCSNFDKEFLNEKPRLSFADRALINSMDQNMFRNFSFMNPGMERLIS

B1: GST-NR2F6 fusion protein, wild-type, full-length (purified recombinant) (other)
chain: MAMVTGGWGGPGGDTNGVDKAGGYPRAAEDDSASPPGAASDAEPGDEERPGLQVDCVVCGDKSSGKHYGVFTCEGCKSFFKRSIRRNLSYTCRSNRDCQIDQHHRNQCQYCRLKKCFRVGMRKEAVQRGRIPHSLPGAVAASSGSPPGSALAAVASGGDLFPGQPVSELIAQLLRAEPYPAAAGRFGAGGGAAGAVLGIDNVCELAARLLFSTVEWARHAPFFPELPVADQVALLRLSWSELFVLNAAQAALPLHTAPLLAAAGLHAAPMAAERAVAFMDQVRAFQEQVDKLGRLQVDSAEYGCLKAIALFTPDACGLSDPAHVESLQEKAQVALTEYVRAQYPSQPQRFGRLLLRLPALRAVPASLISQLFFMRLVGKTPIETLIRDMLLSGSTFNWPYGSGQ
notes: GST is placed at the N-terminus from the name 'GST-NR2F6' only; also called recombinant NR2F6; not shown: glutathione S-transferase (GST) fusion tag
On to B1, for which the binding result in experiment [1] and in experiment [2] was “binds” each time.
